For series [1], the target named is T1, SLBP (histone stem-loop binding protein) (UniProt Q14493 1-270). Briefly: EMSA; without trigger; EMSA: 1x NT2 buffer, 1 mM DTT, RNaseOUT, 50 uL, room temperature 1 h, 1.25 ug SLBP (~37 pmol), native 8% PAGE in 1x TB; RIP: RNAs in 10 mM Tris/100 mM NaCl; pH. Particulars: protein: recombinant; label: none; alternative fold without HSL. In general terms: In EMSA bound probe runs differently from free probe, usually more slowly.

The target in series [2] is T1, SLBP (histone stem-loop binding protein). Briefly: EMSA; with T-1 trigger; EMSA: 1x NT2 buffer, 1 mM DTT, RNaseOUT, 50 uL, room temperature 1 h, 1.25 ug SLBP (~37 pmol), native 8% PAGE in 1x TB; RIP: RNAs in 10 mM Tris/100 mM NaCl; pH. Particulars: protein: recombinant; label: none; trans three-way junction, bait:trigger 1:1, not a blunt duplex.
Series [3] has the same target. Briefly: RIP pull-down with recombinant SLBP; with T-1* trigger; EMSA: 1x NT2 buffer, 1 mM DTT, RNaseOUT, 50 uL, room temperature 1 h, 1.25 ug SLBP (~37 pmol), native 8% PAGE in 1x TB; RIP: RNAs in 10 mM Tris/100 mM NaCl; pH. Particulars: label: none, trans three-way junction, bait:trigger 1:1, not a blunt duplex.

Experimental findings from paper PMC5368982, “Engineering Structurally Interacting RNA (sxRNA)” are described below.

B1: B-1b (structured_RNA)
RNA: GGGAAGAGAGCCCAAACACCAUUGUCAAAAGGCUCUUUUCAGAGCUACACUCCAGAGCU
modifications: none
B1: the binding result in series [1] is recorded as “no binding”.

B2: B-1b + T-1 (trans-3WJ) (structured_RNA)
RNA 1: B1 RNA
RNA 2: UGGAGUGUGACAAUGGUGUUUG
modifications: none
Regarding B2, the binding result in series [2] is given as “binds”.

B3: B-1a + T-1* (trans-3WJ) (mixed)
RNA 1: GGGCAAACACCAUUGUCAAAAGGCUCUUUUCAGAGCCACACUCCA
RNA 2: UGGAGUGUGACAAUGGUGUUUG
modifications: 2'-OMe on trigger (strand 2)
With B3, the binding result in series [3] is recorded as “binds”.
